Data on one molecule can be found in patent US20260227403A1 (HENRY M JACKSON FOUNDATION FOR THE ADVANCEMENT OF MILITARY …, published 2026).

What is called Kd is the free concentration of one partner at which half of the binding sites on the other are occupied at equilibrium, for simple one-to-one binding. In general, koff refers to a measure of how fast the partners let go of each other. Read a low koff as a long-lived complex. Usually kon stands for a measure of how fast the partners come together. High values mean faster complex formation, low ones slower complex formation.

One assay addresses T1, P42.
T1 construct: N-terminal truncation of P1
T1 peptide: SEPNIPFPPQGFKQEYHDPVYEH
Kind of assay: ELISA: 1 µg peptide coated per well, 29E4 at 20 ng/mL, HRP goat anti-rabbit Ig 1:16,000, ABS 450 nm, duplicates [CONT. 1].

The next assay deals with T2, P31.
T2 construct: C-terminal truncation of P1
T2 peptide: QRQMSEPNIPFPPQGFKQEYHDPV
Described as above.

The target in assay [1] is T3, peptide P38 (QRQMSEPNIPFPPQGFK) (human).
T3 construct: C-terminal truncation of the immunogenic peptide P1
T3 peptide: QRQMSEPNIPFPPQGFK
Described as above.

Another assay addresses T4, P33.
T4 construct: C-terminal truncation of P1
T4 peptide: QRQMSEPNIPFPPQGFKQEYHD
Described as above.

In the next assay the target is T5, P37.
T5 construct: C-terminal truncation of P1
T5 peptide: QRQMSEPNIPFPPQGFKQ
The description is as above.

The target of a further assay is T6, P34.
T6 construct: C-terminal truncation of P1
T6 peptide: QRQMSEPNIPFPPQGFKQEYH
The description is as above.

A further assay deals with T7, P48.
T7 construct: C-terminal truncation of P1
T7 peptide: QRQMSEPNIPFPPQG
The assay is described as above.

A further assay addresses T8, P49.
T8 construct: C-terminal truncation of P1
T8 peptide: QRQMSEPNIPFPPQ
The description is as above.

The next assay deals with T9, P30.
T9 construct: C-terminal truncation of P1
The description is as above.

The next assay addresses T10, P36.
T10 construct: C-terminal truncation of P1
T10 peptide: QRQMSEPNIPFPPQGFKQE
The description is as above.

The next assay has as its target T11, P29.
T11 construct: C-terminal truncation of P1
Described as above.

In the next assay the target is T12, P41.
T12 construct: N-terminal truncation of P1
T12 peptide: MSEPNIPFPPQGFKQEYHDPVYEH
The assay is described as above.

Another assay addresses T13, P50.
T13 construct: C-terminal truncation of P1
T13 peptide: QRQMSEPNIPFPP
Described as above.

A further assay addresses T14, peptide P40 (…) (human).
T14 construct: N-terminal truncation of the immunogenic peptide P1
Described as above.

The target in assay [2] is T15, ETV1 immunogenic peptide P1 (human).
T15 construct: 27 amino acid peptide, ETV1 residues 212-238; also called immunogen peptide; ETV1 P1 peptide
Kind of assay: SPR (Biacore T200), antibody amine-coupled on CM5 chip, peptide as analyte, 1:1 binding fit. As for the experimental part:
Affinity measurements using SPRi was performed using a Biacore T200 instrument (Cytiva, Marlborough, MA) by Creative Biolabs (Shirley, NY, USA). The ETV1 (29E4) antibody was directly immobilized onto a CM5 sensor chip surface using an amine coupling kit (Cytiva). Before immobilization, the CM5 sensor surface was activated using a mixture of 400 mM 1-ethyl-3-(3-dimethylaminopropyl) carbodiimide (EDC) and 100 mM N-hydroxysuccinimide (NHS). The ETV1 antibody was diluted to 40 μg/ml in immobilization buffer (10 mM NaAc, pH 4.5) and injected into Fc4 sample channel at a flow rate of 10 μL/min. The amount of antibody (ligand) immobilized was about 5,000 RU. The chip was deactivated by 1 M Ethanolamine hydrochloride-NaOH (GE Healthcare Life Sciences, Piscataway, NJ) at a flow rate of 10 μL/min for 420 seconds. The reference Fc3 channel underwent similar procedures but without injecting the ligand. […] Different concentrations of the […] were then injected into the cell over both channels at a flow rate of 30 μL/min, with a contact time of 90 seconds, followed by a dissociation time of 210 seconds. The surface was regenerated with 10 mM Glycine-HCl, pH 1.5 after each injection to prepare for the injection of the next antibody dilution sample. Data analysis was performed on the Biacore T200 computer and with the Biacore T200 evaluation software, using the steady-state affinity model or 1:1 binding model.
The binding of the 29E4 mAb to its epitope sequence was further analyzed by using SPRi. After immobilizing the ETV1 mAb onto a matrix of dextran on the surface of a Sensor Chip to a level of 5000 response units (RU) with standard amine coupling (FIG. 4, panel A), different concentrations of the serially diluted peptide were then injected as an analyte into the cell over both channels for 300 seconds (contact time of 90 seconds, followed by a dissociation time of 210 seconds) to give a response of about 180 RU. The different binding affinity of each antibody dilution is depicted in the overlay plot of SPR sensorgrams and fitting curves (FIG. 4, panel B).
(SPR reads the build-up and loss of mass on a sensor chip optically.)

T15 sequence (peptide, as listed by the source): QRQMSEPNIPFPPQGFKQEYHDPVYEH

B1: ETV1 rabbit monoclonal antibody (29E4) (antibody, V domains shown)
VH: QELEESGGDLVKPGASLTLTCTASGFFFSAENHICWVRQAPGKGLEWIGCVYIGSYVGGSGDPYYASWAKGRFTISKTSSTTVTLQMSSLTAADTATYFCARDLGSLWGPGTLVTVSS
VL: DVVMTQTASSVSAAVGGTVTIACQSSQSVYDNNNLAWFQQKPGQPPKRLIYSASTLASGVSSRFKGSGYGTQFTLTISDVQCDDAATYYCVGAFSGYIFVFGGGTEVVVK
notes: constant regions are not; also called 29E4 mAb; ETV1 29E4 mAb
In the case of B1, the binding result (in the assay with P42; with P31; in assay [1]; in the assay with P33; with P37; with P34) was “binds” throughout. Besides, the binding result with P48, with P49, in the assay with P30, with P36, with P29 and with P41 was “binds” throughout. Besides, the binding result in the assay with P50 and in the assay with peptide P40 (…) was “binds” throughout. Also, in [2], the Kd came to 479 pM. In [2], this molecule displayed a koff of 0.000149 s⁻¹. The molecule further registered an on-rate constant (kon) in assay [2] of 311000 M⁻¹ s⁻¹.
